Test results published in patent publication US20050244939A1 (AJINOMOTO, published 2005).

Molecular target: the molecule itself
Test: X-ray crystal structure (self-association of subunits)
Experimental: The crystals were moved into 0.15M sodium citrate buffer (pH 5.6) containing 25% glycerol and 1.5M ammonium phosphate, and rapidly cooled to −173° C. by blowing nitrogen gas. The X-ray diffraction data of PtALD native crystals was collected using an X-ray diffractometer R-AXIS V++ (Rigaku Co., Ltd.) at the Photon Factory Beamline 6B of the High Energy Accelerator Research Organization (Tsukuba, Japan). The X-ray wavelength was fixed at 1.0 angstrom and the distance from the crystal to an imaging plate detector was 180 mm. Exposure time and an oscillation angle per one imaging plate frame were 120 sec and 0.8°, respectively, and the data for 150 frames was collected. In the crystallographic parameters, the space group was P6₃22, and the lattice constants were a=94.38 angstrom and c=111.49 angstrom. The asymmetric unit contains one aldolase molecule, and the water content of the crystal was 60%. The crystal was diffracted to approximately 1.5 angstrom resolution. The data processing was made with a program Crystal Clear (Rigaku Co., Ltd.). The Rmerge, which indicates the quality of the data, was 0.097 between 40.0-1.5 angstrom resolution, and 0.260 between 1.55-1.50 angstrom resolution in the most outer shell. The completeness of the data was 99.2% between 40.0-1.5 angstrom resolution, and 99.9% between 1.55-1.50 angstrom resolution in the most outer shell. […]

B1: aldolase derived from Pseudomonas taetrolens ATCC4683 (PtALD), wild-type (enzyme)
chain: MSLPGSRIYPSPPQAPRSLLDAFQNVVTPHISDNLGRHIGARGLTRYNHTGKLVGTALTVKTRPGDNLYIYKALTLIEPGHVLVIDAQGDATNAVIGELIKLYAQQRGCVGFVVDGAIRDVASFEDTPCYARSVVHCGPYKSGPGEINVPVSIGGMIINPGDIIVGDEDGLVAFSPDHAEQVLVKAREHDAHEQQVKAEIATGAIDQSWLDKVLEKAGLAN
notes: It was purified and crystallised; The asymmetric unit contains one subunit; also called IHOG aldolase; recombinant PtALD
binding result: binds
